# Results taken from PMC6445466.
# What was measured:
# [1] = target: human C1r, full-length enzyme (human) (UniProt P00736)
# [2] = target: BBK32(206-348) (residues 206-348, B. burgdorferi strain B31) (Borrelia burgdorferi strain B31) (UniProt O50835); test: SPR; Biacore T200, 25°C; borrelial protein immobilised by amine coupling (CMD200M chip); C1 as analyte, two-fold dilution series 0 to 150 nM, 2 min association, 3 min dissociation; HBS-T (20 mM HEPES pH 7.3, 140 mM NaCl, 0.005% Tween-20) with 5 mM CaCl2; 1:1 kinetic fit; triplicate
# [3] = target: BAD16-C (residues 204-352, B. afzelii strain PGau) (Borrelia afzelii strain PGau); test: as above
# [4] = target: BBK32-C (residues 206-354, B. burgdorferi strain B31) (Borrelia burgdorferi strain B31) (UniProt O50835); test: as above
# [5] = target: BXK32-C (BBK32-C E308K-Q319K-E324Q) (Borrelia burgdorferi strain B31) (UniProt O50835); test: as above
# human C1r, full-length enzyme (human), sequence (P00736 18-705): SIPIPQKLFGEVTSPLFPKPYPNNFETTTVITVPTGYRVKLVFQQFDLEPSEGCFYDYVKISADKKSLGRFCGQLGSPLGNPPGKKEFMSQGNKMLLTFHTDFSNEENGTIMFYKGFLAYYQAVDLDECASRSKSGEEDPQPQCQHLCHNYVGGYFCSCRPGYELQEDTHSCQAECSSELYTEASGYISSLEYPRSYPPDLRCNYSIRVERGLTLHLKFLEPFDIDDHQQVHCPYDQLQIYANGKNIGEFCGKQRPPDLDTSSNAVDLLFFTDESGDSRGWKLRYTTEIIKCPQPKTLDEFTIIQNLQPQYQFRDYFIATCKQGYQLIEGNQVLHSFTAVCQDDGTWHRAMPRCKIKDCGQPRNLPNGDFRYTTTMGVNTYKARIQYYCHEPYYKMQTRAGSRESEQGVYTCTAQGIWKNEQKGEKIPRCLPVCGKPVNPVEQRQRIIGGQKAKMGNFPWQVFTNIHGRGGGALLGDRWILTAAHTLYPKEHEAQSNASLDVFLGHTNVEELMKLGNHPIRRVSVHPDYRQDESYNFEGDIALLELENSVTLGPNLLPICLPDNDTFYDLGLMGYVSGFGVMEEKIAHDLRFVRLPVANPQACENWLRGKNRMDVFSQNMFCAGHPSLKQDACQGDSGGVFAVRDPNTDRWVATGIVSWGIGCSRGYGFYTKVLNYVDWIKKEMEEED
Substance,"IC50 of C3b deposition, classical pathway-specific ELISA with normal human serum [1]","IC50 of MAC deposition, classical pathway-specific ELISA with normal human serum [1]",IC50 of classical pathway hemolysis of sensitized sheep red blood cells by human serum [1],Kd [2],koff [2],Kd [3],Kd [4],koff [4],Kd [5],koff [5]
"BAD16-C (residues 204-352, B. afzelii strain PGau) (domain or fragment)",9.6 nM,5.9 nM,55 nM,–,–,–,–,–,–,–
human C1 complex (from UniProt P02745 23-245; P02746 28-253; P02747 29-245),–,–,–,5.6 nM,0.00054 s⁻¹,5.4 nM,6 nM,0.0005 s⁻¹,4.7 nM,3.8e-05 s⁻¹
